Consider four molecules from patent US8987192B2, “Potent and selective mediators of cholesterol efflux” (The Regents of the University of California, priority 2006, dated 2015).

“Also recorded” adds a separate entry of the source. Where a SMILES comes first, the peptide text is derived from it. Where no end group is shown, it is not given here.

Series [1] concerns the target ABCA1 (Mus musculus, UniProt P41233). The series can be described thus: Cholesterol efflux from [3H]cholesterol-labeled ABCA1-expressing J774 mouse macrophages. It is filed as cell-based. More on the design: to upregulate cellular ABCA1 protein; endogenous in cells; host or cells: J774 mouse macrophages. How it is done: In some embodiments, a polypeptide known to mediate cholesterol efflux (e.g., helix 9/10 of Apo A-I) is used to screen for additional mediators of cholesterol efflux in a cell based assay. For example, cell lines in which cholesterol efflux can be enhanced using a cAMP analog that up-regulates ABCA1 protein expression (e.g., J774 macrophages) can conveniently be used to assess the ability of a polypeptide of the present invention to mediate cholesterol efflux. The cells are incubated with labeled cholesterol (e.g., [^3H]cholesterol) under conditions appropriate for cholesterol uptake by the cells. Thus, cAMP or cAMP analogs (e.g., CPT-cAMP) are incubated with the cells for a suitable time before the initiation of cellular cholesterol efflux, i.e., prior to contacting the cells with a test polypeptide. Measurement of labeled cholesterol appearing in the medium is used to determine the cholesterol efflux mediating activity of the test polypeptide.
J774 mouse macrophages labeled with [^3H]cholesterol were treated (20 h) with 22-hydroxycholesterol (10 μM)/cis-retinoic acid (10 μM) to upregulate cellular ABCA1 protein.
Mouse macrophages were labeled with [^3H]cholesterol and treated with a cAMP analog to induce ABCA1 expression. […] Km values were calculated using the Michaelis-Menton equation and GraphPad Prism4 software.
Inverted sequence peptides synthesized with all L-amino acids and all D-amino acids were tested for cholesterol efflux activity using ABCA1 expressing J774 macrophages.
Two peptide analogs were engineered; the first replacing glutamic acid residues (E) at position 8 and 15 with aspartic acid residues (D), i.e., E8, 15>D polypeptides, and the second, replacing E1, 7, 8, 15, 18, 19 with D, i.e., all D (Asp) polypeptide. Cholesterol efflux activity was determined using J774 macrophages treated with and without a cAMP analog to modulate ABCA1 expression.
The impact of the A12>L substitution was also tested for activity, which also expanded non-polar surface area.
1-palmitoyl-2-oleoyl-phosphatidylcholine (POPC) was used to evaluate the cholesterol efflux properties of a formulated polypeptide of the present invention. […] To test cholesterol efflux activity, J774 mouse macrophages were labeled with [^3H]cholesterol and treated with and without cAMP to modulate ABCA1 expression.

The test system of series [2] is ABCA1. As to the kind of experiment: Cholesterol efflux in the absence and presence of ABCA1 (mouse macrophages and HeLa cells transfected with ABCA1 cDNA). Format: cell-based. The conditions noted are these: 8 hours, saturating peptide >30-fold Km; for requirement of ABCA1 for cholesterol efflux activity: mouse macrophages and ABCA1-transfected HeLa. An excerpt: The large excess of polypeptide was provided to determine the extent (if any) of non-specific efflux, in the absence of ABCA1 induction.

Series [3] can be described thus: Pharmacokinetic analysis with monophasic decay model. It is filed as in vivo. The source says: Position 11, i.e., A, in the polypeptide of SEQ ID NO:4 can be substituted with other non-polar (hydrophobic) amino acids as well as other polar non-charged amino acids.
Series [4] has as its system Apolipoprotein E knock-out mice. The series can be described thus: Atherosclerosis in Apolipoprotein E knock-out mice on Western diet, pooled series (Example 19). Format: in vivo, mouse. The conditions noted are these: 30 mg/kg IP, 21 injections, pooled data of three series. How it is done: The polypeptide of SEQ ID NO:4 and its Y26 analog have been evaluated with respect to ability to inhibit atherosclerosis in Apolipoprotein E knock-out mice. The mice were given Western diet for 18 weeks and then randomized to receive saline, free polypeptide or polypeptide-phospholipid complex. […] The degree of atherosclerosis was then determined in whole aorta and aortic root/sinus. Three experimental series were performed. […] The results are equal to or better than previously have been obtained with IV infusions of 40 mg/kg Apolipoprotein A-I Milano/phospholipids complex into Apo E knock-out mice (Shah et al., Circ., 97:780-5, 1998).
As noted above, data from three experimental series were pooled. Pooling of data is justified as only minor changes in the procedures were made (21 injections at 30 mg/kg over 42 and 21 days, respectively), and the diet regimens and sources of mice and polypeptide, respectively, were the same. In the first experiment S26 was substituted for Y26.

Series [5] in a line: Pharmacokinetics of iodinated peptide in Sprague-Dawley rats. The conditions noted are these: for Half-live: IP, time interval 0-30 hours. Format: in vivo. How it is done:
An iodinated version of polypeptide of SEQ ID NO:4, which was modified to have a Y residue at the C-terminus, was administered intravenously to Sprague-Dawley rats. The kinetics reflected a biphasic elimination, which is typical of peptides. […] This distribution pattern resembles what has been reported for ApoA-I and HDL. […] (See, FIG. 23).
The bioavailability in percent was calculated from the area under the curve IP as divided by area under the curve IV after adjustment for residual activity and the bioavailability was about 40%.

Chain of ABCA1 (Mus musculus, UniProt P41233) (P41233 whole entry): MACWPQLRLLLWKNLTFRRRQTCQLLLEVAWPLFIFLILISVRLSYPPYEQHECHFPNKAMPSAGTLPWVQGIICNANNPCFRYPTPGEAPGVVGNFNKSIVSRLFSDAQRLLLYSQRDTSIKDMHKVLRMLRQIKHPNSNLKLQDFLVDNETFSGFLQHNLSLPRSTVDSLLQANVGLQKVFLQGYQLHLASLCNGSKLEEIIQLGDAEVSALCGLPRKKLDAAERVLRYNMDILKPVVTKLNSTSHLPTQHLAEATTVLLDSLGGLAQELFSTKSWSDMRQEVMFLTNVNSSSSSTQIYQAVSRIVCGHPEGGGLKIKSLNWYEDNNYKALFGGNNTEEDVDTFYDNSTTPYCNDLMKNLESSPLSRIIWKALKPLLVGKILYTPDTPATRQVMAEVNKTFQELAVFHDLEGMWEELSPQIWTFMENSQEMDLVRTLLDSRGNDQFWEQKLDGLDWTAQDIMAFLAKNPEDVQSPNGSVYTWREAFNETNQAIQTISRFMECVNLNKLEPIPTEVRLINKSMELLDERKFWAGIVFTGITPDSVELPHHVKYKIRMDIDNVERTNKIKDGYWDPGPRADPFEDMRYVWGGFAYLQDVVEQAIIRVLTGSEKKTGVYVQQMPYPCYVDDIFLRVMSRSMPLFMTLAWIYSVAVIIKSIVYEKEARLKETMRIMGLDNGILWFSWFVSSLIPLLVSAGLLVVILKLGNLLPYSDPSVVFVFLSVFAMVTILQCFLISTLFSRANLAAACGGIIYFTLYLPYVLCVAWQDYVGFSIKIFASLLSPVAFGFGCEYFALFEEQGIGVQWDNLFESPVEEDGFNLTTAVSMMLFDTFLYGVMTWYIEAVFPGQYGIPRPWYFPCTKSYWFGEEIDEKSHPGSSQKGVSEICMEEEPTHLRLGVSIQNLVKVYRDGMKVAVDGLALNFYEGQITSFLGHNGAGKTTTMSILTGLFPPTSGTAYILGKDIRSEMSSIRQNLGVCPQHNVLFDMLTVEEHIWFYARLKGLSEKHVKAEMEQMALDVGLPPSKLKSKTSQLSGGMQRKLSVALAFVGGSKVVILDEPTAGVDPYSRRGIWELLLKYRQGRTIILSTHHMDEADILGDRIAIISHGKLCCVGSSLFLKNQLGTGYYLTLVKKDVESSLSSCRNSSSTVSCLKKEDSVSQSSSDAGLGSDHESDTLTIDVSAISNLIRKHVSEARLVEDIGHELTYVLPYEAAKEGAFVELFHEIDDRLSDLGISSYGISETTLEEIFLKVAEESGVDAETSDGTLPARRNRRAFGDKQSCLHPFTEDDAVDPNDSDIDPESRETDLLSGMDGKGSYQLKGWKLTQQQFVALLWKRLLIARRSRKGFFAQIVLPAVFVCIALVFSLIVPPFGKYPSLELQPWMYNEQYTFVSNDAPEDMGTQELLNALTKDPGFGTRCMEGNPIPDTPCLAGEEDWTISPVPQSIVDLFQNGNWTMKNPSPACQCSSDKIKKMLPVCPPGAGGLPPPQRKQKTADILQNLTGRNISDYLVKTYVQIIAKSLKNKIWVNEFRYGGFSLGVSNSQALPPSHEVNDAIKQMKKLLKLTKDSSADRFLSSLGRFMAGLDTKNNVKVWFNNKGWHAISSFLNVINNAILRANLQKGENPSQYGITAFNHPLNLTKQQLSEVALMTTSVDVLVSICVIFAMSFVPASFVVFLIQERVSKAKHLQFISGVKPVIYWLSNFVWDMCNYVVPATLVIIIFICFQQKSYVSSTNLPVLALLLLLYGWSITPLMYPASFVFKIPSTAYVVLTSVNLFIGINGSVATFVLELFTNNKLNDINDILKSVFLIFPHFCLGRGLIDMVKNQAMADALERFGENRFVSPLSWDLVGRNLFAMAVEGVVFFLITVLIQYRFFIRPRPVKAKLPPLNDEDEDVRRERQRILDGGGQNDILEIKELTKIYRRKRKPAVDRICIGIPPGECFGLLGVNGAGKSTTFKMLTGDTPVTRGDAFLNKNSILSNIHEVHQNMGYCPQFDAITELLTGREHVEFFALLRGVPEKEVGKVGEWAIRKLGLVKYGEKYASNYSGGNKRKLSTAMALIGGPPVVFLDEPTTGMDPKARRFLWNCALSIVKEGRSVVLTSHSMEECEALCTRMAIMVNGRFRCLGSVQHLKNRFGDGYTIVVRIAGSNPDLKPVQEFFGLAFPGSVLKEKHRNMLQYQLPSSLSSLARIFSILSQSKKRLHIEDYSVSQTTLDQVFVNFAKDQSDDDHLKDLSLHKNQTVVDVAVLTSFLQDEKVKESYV

Consider “EVRSKLEEWFAAFREFFEEFLARLKS (S1 amphipathic alpha-helix polypeptide core sequence selectively binds HDL, high-affinity ligand for ATP- binding cassette transporter A1 (ABCA1), ABCA1-lipid cholesterol efflux, ABCA1-stablization, anti-oxidant and anti-inflammatory activity) [SEQ ID NO:5]”, for which the “cholesterol efflux efficiency/potency on per molecule (molar) basis versus apolipoproteins” value in series [1] (Km in molar units) is “activity similar to full-length Apo A-I, Apo E, and the C-terminal (CT) domain of Apo E”. Further, in series [1] (no cAMP), the “cholesterol efflux from macrophages not induced for ABCA1 (non-specific)” value was “Low efflux”. Further, in series [2], the “non-specific efflux activity in the absence of ABCA1” value was “minimal” and the “requirement of ABCA1 for cholesterol efflux activity” value was “required ABCA1 for efflux activity”.
“Apo A-I: full-length Apolipoprotein AI, polypeptide comprising 243 amino acids”: the “cholesterol efflux at low mass concentrations” value in series [1] (increasing concentrations based on mass) is listed as “largely ineffective”. Besides, in series [2], the “requirement of ABCA1 for cholesterol efflux activity” value is “required ABCA1 for activity”.
As for `CC(C)C[C@H](NC(=O)[C@H](Cc1ccccc1)NC(=O)[C@H](CCC(=O)O)NC(=O)[C@H](CCC(=O)O)NC(=O)[C@H](C)NC(=O)[C@H](Cc1ccccc1)NC(=O)[C@H](CCC(=O)O)NC(=O)[C@H](CCCNC(=N)N)NC(=O)[C@H](Cc1ccccc1)NC(=O)[C@H](C)NC(=O)[C@H](Cc1ccc(O)cc1)NC(=O)[C@H](Cc1ccccc1)NC(=O)[C@H](Cc1c[nH]c2ccccc12)NC(=O)[C@H](CCC(=O)O)NC(=O)[C@H](CCC(=O)O)NC(=O)[C@H](CC(C)C)NC(=O)[C@H](CCCCN)NC(=O)[C@H](CO)NC(=O)[C@H](CCCNC(=N)N)NC(=O)[C@@H](NC(=O)[C@@H](N)CCC(=O)O)C(C)C)C(=O)N[C@@H](C)C(=O)N[C@@H](CCCNC(=N)N)C(=O)N[C@@H](CC(C)C)C(=O)N[C@@H](CCCCN)C(=O)N[C@@H](CO)C(=O)O` [A11>Y11] (H-EVRSKLEEWFYAFREFAEEFLARLKS-OH), in series [3], the “pharmacokinetic properties compared to parent polypeptide” value is “identical pharmacokinetic properties”.
On to “SEQ ID NO: 4/Y26: SEQ ID NO:4 with serine 26 replaced by tyrosine; iodinated version used for pharmacokinetics (EVRSKLEEWFAAFREFAEEFLARLKY; also: iodinated version used for pharmacokinetics)”, for which the ABCA1-dependent cholesterol efflux entry in series [1] (macrophages with vs without cAMP, listed as S26>Y) is listed as “stimulated ABCA1 cholesterol efflux like the parent 26-mer polypeptide; also recorded: retained ABCA1-dependent cholesterol efflux activity”. In addition, the “antiatherosclerotic effect (whole aorta and aortic root/sinus)” value in series [4] is on record as “significant antiatherosclerotic effects”. The Half-live in series [5] (listed as SEQ ID NO: 4/Y26 peptide) is 11.2 h; in series [5] (modified to include a tyrosine at the C-terminus), “about 11 hours”; in series [5] (which was modified to have a Y residue at the C-terminus), “about 11.2 hours”. Besides, in series [5] (IV), the “distribution volume relative to plasma volume” value is recorded as “approximately twice as large as the plasma volume”. The same molecule had a Correlation in series [5] (IV, 0-2.5 hours) of −0.95. Besides, in series [5] (IV, 0-2.5 hours), the “Half-live, first phase” value stood at 4.5 h. In series [5] (IV, 2.5-24 hours), this molecule yielded a Clearance of 1.2 mL/h/kg. Besides, the “Half-live, terminal (second phase)” value is 33.7 h in series [5] (IV, 2.5-24 hours); “about 34 hours” in series [5] (IV, 2.5-24 hours, modified to include a tyrosine at the C-terminus); “approximately 34 hours” in series [5] (IV, 2.5-24 hours, which was modified to have a Y residue at the C-terminus). The Volume of distribution in series [5] (IV, 2.5-24 hours) was 0.0557 L/kg.
